Paper PMC5435944

Biological target: Mre11-Rad50 (hMR) WT-WT;Nbs1 (Homo sapiens;Homo sapiens, UniProt Q92878;P49959;O60934 1-1312;1-708;1-754, |)
Experiment: EMSA

Sequence of Mre11-Rad50 (hMR) WT-WT;Nbs1 (Q92878 whole entry, chain 1 of 3): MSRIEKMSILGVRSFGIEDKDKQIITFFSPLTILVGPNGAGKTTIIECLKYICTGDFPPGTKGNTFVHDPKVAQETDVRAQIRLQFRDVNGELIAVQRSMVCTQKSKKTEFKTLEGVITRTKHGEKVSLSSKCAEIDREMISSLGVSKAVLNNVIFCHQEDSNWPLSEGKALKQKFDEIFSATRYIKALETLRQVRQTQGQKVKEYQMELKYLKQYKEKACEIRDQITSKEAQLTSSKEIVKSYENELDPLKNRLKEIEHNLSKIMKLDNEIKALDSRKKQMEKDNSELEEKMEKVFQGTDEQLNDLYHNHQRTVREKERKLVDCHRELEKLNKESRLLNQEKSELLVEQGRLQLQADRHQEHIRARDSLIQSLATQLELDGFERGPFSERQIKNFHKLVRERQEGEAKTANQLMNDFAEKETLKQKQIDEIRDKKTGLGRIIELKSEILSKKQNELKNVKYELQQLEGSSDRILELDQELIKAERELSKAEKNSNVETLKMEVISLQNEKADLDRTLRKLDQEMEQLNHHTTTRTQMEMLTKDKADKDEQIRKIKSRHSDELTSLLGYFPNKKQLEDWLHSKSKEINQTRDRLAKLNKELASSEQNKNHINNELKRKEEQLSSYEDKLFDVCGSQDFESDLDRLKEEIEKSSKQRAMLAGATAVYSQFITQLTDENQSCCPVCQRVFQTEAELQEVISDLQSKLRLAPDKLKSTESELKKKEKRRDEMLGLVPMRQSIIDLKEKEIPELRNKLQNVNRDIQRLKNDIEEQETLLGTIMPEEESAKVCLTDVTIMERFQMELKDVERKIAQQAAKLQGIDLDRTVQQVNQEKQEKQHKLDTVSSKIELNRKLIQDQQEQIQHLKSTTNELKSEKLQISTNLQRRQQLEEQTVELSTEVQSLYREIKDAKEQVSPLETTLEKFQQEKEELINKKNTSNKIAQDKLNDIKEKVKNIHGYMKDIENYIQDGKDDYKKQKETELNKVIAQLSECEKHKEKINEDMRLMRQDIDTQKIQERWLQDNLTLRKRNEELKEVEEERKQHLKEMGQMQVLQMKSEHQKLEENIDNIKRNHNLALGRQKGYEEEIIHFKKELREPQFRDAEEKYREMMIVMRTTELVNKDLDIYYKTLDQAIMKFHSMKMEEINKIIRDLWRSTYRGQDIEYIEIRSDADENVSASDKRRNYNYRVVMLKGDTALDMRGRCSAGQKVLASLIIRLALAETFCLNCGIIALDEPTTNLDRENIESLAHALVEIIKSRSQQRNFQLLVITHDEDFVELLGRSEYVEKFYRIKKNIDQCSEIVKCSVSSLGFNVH
Sequence of Mre11-Rad50 (hMR) WT-WT;Nbs1 (P49959 whole entry, chain 2 of 3): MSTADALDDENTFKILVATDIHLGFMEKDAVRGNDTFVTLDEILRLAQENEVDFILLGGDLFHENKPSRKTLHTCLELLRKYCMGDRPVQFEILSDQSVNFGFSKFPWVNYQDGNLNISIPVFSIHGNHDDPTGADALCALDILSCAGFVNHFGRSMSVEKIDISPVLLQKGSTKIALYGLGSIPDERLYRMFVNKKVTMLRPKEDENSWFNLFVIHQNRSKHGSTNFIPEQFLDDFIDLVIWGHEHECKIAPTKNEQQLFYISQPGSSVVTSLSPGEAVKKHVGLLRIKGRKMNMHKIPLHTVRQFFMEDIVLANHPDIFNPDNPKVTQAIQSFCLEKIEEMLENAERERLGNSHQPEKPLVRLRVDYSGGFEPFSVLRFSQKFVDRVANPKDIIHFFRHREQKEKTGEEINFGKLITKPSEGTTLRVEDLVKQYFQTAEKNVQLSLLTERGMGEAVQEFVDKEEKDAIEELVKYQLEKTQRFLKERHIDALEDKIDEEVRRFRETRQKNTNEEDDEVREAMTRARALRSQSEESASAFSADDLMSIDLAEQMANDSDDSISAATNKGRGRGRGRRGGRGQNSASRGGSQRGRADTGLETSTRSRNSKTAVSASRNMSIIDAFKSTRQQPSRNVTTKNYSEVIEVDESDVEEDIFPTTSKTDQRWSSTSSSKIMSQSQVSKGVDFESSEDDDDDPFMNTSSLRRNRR
Sequence of Mre11-Rad50 (hMR) WT-WT;Nbs1 (O60934 whole entry, chain 3 of 3): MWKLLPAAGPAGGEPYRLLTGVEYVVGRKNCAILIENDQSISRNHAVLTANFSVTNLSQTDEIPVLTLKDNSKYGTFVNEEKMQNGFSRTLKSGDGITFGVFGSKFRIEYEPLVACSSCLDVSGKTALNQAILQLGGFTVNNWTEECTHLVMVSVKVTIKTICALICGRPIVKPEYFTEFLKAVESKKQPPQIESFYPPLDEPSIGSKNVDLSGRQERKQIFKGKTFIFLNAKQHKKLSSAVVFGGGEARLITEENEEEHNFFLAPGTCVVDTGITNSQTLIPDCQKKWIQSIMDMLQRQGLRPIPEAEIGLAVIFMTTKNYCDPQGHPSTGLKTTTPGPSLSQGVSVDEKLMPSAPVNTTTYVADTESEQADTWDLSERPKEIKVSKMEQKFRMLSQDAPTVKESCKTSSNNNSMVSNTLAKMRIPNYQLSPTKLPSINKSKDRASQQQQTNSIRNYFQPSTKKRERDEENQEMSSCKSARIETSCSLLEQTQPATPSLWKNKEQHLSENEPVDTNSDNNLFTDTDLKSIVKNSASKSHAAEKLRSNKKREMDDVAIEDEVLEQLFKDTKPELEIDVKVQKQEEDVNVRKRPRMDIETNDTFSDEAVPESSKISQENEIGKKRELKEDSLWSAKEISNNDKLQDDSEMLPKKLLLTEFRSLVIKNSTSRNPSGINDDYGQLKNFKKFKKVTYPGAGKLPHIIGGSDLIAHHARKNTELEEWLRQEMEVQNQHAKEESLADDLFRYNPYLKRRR

B1: TP4536/TP4559 (dsDNA)
DNA 1: TGGGTCAACGTGGGCAAAGATGTCCTAGCAATGTAATCGTCTATGACGTT
DNA 2: AACGTCATAGACGATTACATTGCTAGGACATCTTTGCCCACGTTGACCCA
modifications: 5' biotin-TEG on strand 1; five phosphorothioate bonds at 3' end of strand 2 (G*A*C*C*C*A)
**Q.** Does B1 bind?
**A.** binds
